Experimental data reported in the domain aggregation screens of Martell et al. (2025).

Assay: soluble fraction after stress (log2 fold change); higher = more stays soluble; pooled small domains, quantitative proteomics
Settings: stress: pH 4
Summary of the method: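 Values are on a log2 scale, where higher means more of the domain stayed soluble after pH 4 stress. They are fold changes in the soluble amount of each domain from pooled custom libraries, measured by high-throughput quantitative proteomics. The fold change is taken to reflect aggregation propensity.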

Row | Sequence | soluble fraction (log2)
1 | HMKEYRKEGHLYFVTEDRNNEIYLWDFTDKPKHEFKEIITSVELQKVAKEGAMLQYKNGKYELYS | -0.0848
2 | HMKFDVNAAIRAVLNVTVDKGATLERIMKETNLTSDQLVLPIALLMKTERLHFKRSGTHEVYVSVGKAPDK | -0.0868
3 | HMKFGEQIKERRQELDLTQAEVAEKLFVTRQAVSNWEHNKTYPDLNMLVKISNVYQISLDSLLR | -0.0339
4 | HMKFHENLIALRRREGWSQEELGNRIGVTRQTVSKWELGLTTPELEKLVQLADVFGMTTDQLVGR | -0.111
5 | HMKFNLWLSEKLKKLGLTQRKLAEQAGVSPATVSRWLSGEFEPDLTNLRKINQVLGVPERELFLQLGL | -0.0282
6 | HMKFPNVGENLRLLRQEMGISLDKASKMTGVSKAMLGQIERGESSPTVSTLWKISSGFKINFTTLLSE | 0.224
7 | HMKFPPASDIRRMRKAIDVTQTELAKQSGVSQSTIAKIERGRISASYDTVVKLFETLDEMAK | -0.00924
8 | HMKFTPPTLEQIKNEMLLKTDEYNADIQSDRFFTYYDSNGWMVGKNKMKKFLVSLVAVFAATSA | -0.374
9 | HMKFYIHEIIGFNAVDKVAGIVGKVININEDSPQKKLVVNYNGKEVFIPLVDEIVRKIDKQKNEVLITMP | -0.174
10 | HMKGEIEELLYEEVTKDNNTTFLRIYIKLNDEYNTLLNLGIIGIKTEEKVNELVNLGYKKVL | -2.54
11 | HMKGISRVTMELIIDALKKETEPRTVQWIAEKTGLATQTTYRYLQYMVSEQTVEALNVYGKVVSLKAK | 0.153
12 | HMKGKWKPIILWQLSKAPQSLSGLRHSIAGISQKMLIQHLNELIHFGFVVRTTFEGYPLKVEYDLTDRGR | -0.251
13 | HMKGLDAAVVDLFKSKGASIVFAGNRLSLSGEVADQATKDELLAKAKAILASLGASVSLDDKLMVKGAKAS | 0.175
14 | HMKGMIKVASMSLGADLGLYSRHLKYLGIVHRVVEESGGQSVYIQKLNDLHTAKESLELYLKNELKI | -0.476
15 | HMKGQNRSEITAGARVKVVQKQDQRTGALTEGIVRDILTRSPHHPHGIKVRLESGIVGRVKDVL | -0.287
16 | HMKGSIMIETILKELKKNNKGFNFLLEKFDISEDELMKIINDLIHDKKVFLNSNNKYEIVSD | -0.958
17 | HMKGTVLAPGIILNADDQRFTYLQEDVASVAKDGAAIVLKQGDEVDFIADGQTAKQIYLTKT | 0.0738
18 | HMKGVPGIGDYVKLSGGSTVGKVLSISGKKAEVAFGLLRTTTELSKLEKVRKPKELLQSGVSS | ≥ 0.43
19 | HMKGVTVDGDNITVDGEKQTLISVNKNLDGDVVSYTYRTADGKLRTSRNVEVAQEINKQQLLKSIDAQ | 0.0219
20 | HMKGWPDREQAEKIWQQGIDYAIEHHTMSPQIVKEYIFHTQGIARSAALIAARLPDMDTEKAYVLGLLHD | 0.0199
21 | HMKIAEALNLRGDADSYERQEAIWLLEHIVGMSALELKYRGEQDLTEDQLQQYRSGLQRLEQGEPLAYVIG | -0.73
22 | HMKIDLKQIEGVLDELAKVKGSLITILQKTQETYGYLPKEAIIYISERTGIAESEIMGVATFYTQFRL | -0.779
23 | HMKIDLTPQEEKIYSVLETELTLDEIIMKTSIKAGEALAILMDLELKKLVASVAGGKYRRKA | 0.157
24 | HMKIEETLGKTAQVYIPIPQYLSGIGKVTLSVRGSLRELDAMTEEEKIPSNTIVRIVKVQDQVLFVKRA | -0.0641
25 | HMKIHNSIREITDFDRKQNSNIPSDAKYRIVFYTPQGNKTIIPEELQGLQYYRSKELAEIALNKKLNSN | 0.0952
26 | HMKILKQLEAIIEKEGLNESAKQFYLREISELDKEKQQEIINLVDKMEQAGFKNNLASAFSEVTEDIPQF | -0.518
27 | HMKILNYQSLVGKKGITKSMLRPAGIVEIEGRRYDVVTRGEFIEPGKMITVDEVQGNRIIVQIERE | 0.189
28 | HMKIPIIYQPLKNAKRIKIYIPYELKELRTIFKKINTTFWHPNQKLWSIIYTQENVALIKNLFGKNYKIVN | -0.0514

Row | Sequence | soluble fraction (log2)
29 | HMKIQEVDYSTFLNMLNEKSIAQVEIQDNQIAFNSNQEGNKQIYVTGRIEEDTELVNRLQAAGVQFSRV | -0.638
30 | HMKIRIIKTASNAKAVQIVSYKNNKRIVLQHIGSAHTDETLNDLKILAEEWIKDYNHQLSIF | -0.671
31 | HMKISDLPAAQVYREIVHAWPKAAAYADLAPINNGGMQRWRDVVHEWVLRGYNPANLRGMLEWYKAGIPTR | -0.132
32 | HMKISDMIETNLKFLRGKHSISQAELAESLGIPRTTLSAYERGFVEPNIELMLKMAKYFNVSLDDLIAYN | -1.3
33 | HMKISQSRKAGKLVLESELKRGGVSLDQYRGGRMSRILELIGVKSLNELLTDLGTGKKTGALVAERFFSGL | -0.036
34 | HMKITFNPVSSGRLDIILAEKTGYTRSYVKQLVEKQAVTINGEAAKKSGQNVKAGDEIALDEP | 0.149
35 | HMKITIDSVERDETFRLIWGTGWKPKNKIQELAAIQAKKNGLGRMNEVAGLAAWRGIWQQVAEQVAQEVL | -0.843
36 | HMKITKIWFTADHIFGRDEEGKEYSQSLLWYPKLSAASDEERSQYTFGYDGIHWRSLDEDISFESF | -1.52
37 | HMKIVFGHVKWFDIDKGFGFLVLEDEGGDVLLHANVLKNFGRTSVSEDTKIEFEFLETDKGRQVSTIYNIL | -2.19
38 | HMKIVQDIAFSDFLNEVEKDNVLDVNIKGDLINGNLADGRKFKTYTPYDPNLIEKLSNKNVTINVEPYN | 0.00986
39 | HMKKAENEKLNIPYDVTEFLASSIKDDIRMMEGAMVKLLALSSLTKQDITQSLAKRVIQDVLGSSA | -0.451
40 | HMKKAMIISTKRGTPAAELDKIIREFEAKGLSVTMIRGTDYNVFGLVGDTTVIDEKQVRANPYVENVQRV | -0.325
41 | HMKKATYDVMVREALVSFKKKGATLQSIKKKIKADYAIEANATAVKSAIQKGMEAGSIRKSYDLYFFMD | 0.15
42 | HMKKDDLKQINGIGTTIEKKLNEIDIYNFYQISNLSKEDIETISEKIKTFPGKIERDNWVGQAQELL | -0.844
43 | HMKKIFIDAPLDTMITIPKDTTHHLLTVFRHKMEKPVLVGGSDGRTGVYQIQDVVDGEASAKLVGDIQ | 0.318
44 | HMKKISAKQQQILDYISSYSLEHGYPPSVREIGAEMGLRSPSTVHAHLKKLQEAGYLEPNEHKSRALTP | -0.0896
45 | HMKKITTANPLDINRATLAQLDTLPGIGPVTAERIIAYRSKVGRINSLDELKKISGLGGMKFEEIKPLLRV | -0.126
46 | HMKKKLPRYLQEQKYGNGMVFYRYNPTARYIDEGIVTRTNLGSDLSIAKKKANEFNKLIDAFLQQQSE | -0.0245
47 | HMKKMSFKEAFLKYVEIKDNPYNMESVKMLVSLQPLIVKAYSILGVDKVRRLNYVKTKIQDAIINGD | 0.0648
48 | HMKKNLELGLLPHEVKSILGEPDFIDTITDIDGIRYDMWSYTKLNVTKRLYFEDLFLVRMEE | -1.42
49 | HMKKNNTTPIPKTLNYVNIKGLSNEAVERLNKHKPSTLGQASRLEGITPAATSLISIAIKKNQLLEKAES | 0.123
50 | HMKKPAERRKELVDAAAHLFAEKGYENTSVRDILDAVGGAPGMFYYYFKSKQDIYVAVMEDF | -1.1
51 | HMKKPANLISEDRMVEVLYDVIIINTAKGVNKQLLQNNINNPLNYIYRSHGIDSLQFAESNAYYTS | -0.798
52 | HMKKSGFFSAGDRIQLTDNKGRQYSFNITEGKEFHTHQGFIKHDDLIGMPEGSVVSINSTTGVVQKFMAF | -0.584
53 | HMKKSIRIFELMKAKVAAEIFDQMILEGKIEDVFDIIVRLKDSNVSNIMKTMSVENSSRLVQKLERYNKD | -0.626
54 | HMKKVRIPDDPEEAYRKALKTAMNIVGYKDNTEFTLREKLSERGYSGETVDAVAEFMKSKGYV | 0.00228
55 | HMKKVTMQDIANILNISRVTVWKVLNNQPGVSKQLRDQILLTAKETGYLKPGQEAEAYLEENNIYFEG | -0.344
